In the supplement of paper PMC11502859 one finds median enrichment data, which are given here for 78 substances.
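Also: lentiviral eGFP-IRES-mCherry reporter pool sorted by FACS 96 h post-transduction, gated on mCherry-high cells, Illumina read counts normalized per million, median across four biological replicates.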

Chain of EIF2AK2 (chain, as listed by the source): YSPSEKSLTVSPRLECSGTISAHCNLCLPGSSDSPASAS
Chain of CASP8 (chain, as listed by the source): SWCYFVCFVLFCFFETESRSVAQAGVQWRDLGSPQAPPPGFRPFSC

The subject of the data set is HEK293T. The data set can be described thus: median enrichment of reporter reads in eGFP-reduced (low/intermediate) vs eGFP-high sorted cells (eGFP-extension fusion abundance) (ratio); higher = stronger loss of eGFP-fusion protein abundance (more destabilising extension).
On to CGLGRFS [IMMT], for which the median enrichment turned out to be 0.695.
“WGRRCGAVNFRPQRSQSMRGGGGGRGRRAKGGGAGASNPRQ [KISS1]”: the median enrichment stood at 15.8.
Regarding YPLLKECEI [NCOA1], the median enrichment turned out to be 0.498.
Regarding KRASTSEWPHLCPRC [NUMA1], the median enrichment stood at 0.399.
Turning to “WARSAVSSQWILVNWWRLADTLEKPKPESLLFSLFSCLCSVSLNTTFSAMVCG [MRFAP1]”, the median enrichment was 5.48.
RSHL [BBOX1]: the median enrichment is 11.7.
Take LSRLLASMDFSRDVDIVLRVH [DIP2C]: the median enrichment is 10.3.
The same measure for KHVVLWVHFV [ABHD3]: 10.5.
With “WVSAVLGTPAHSTLLEYLFPNATSVCFFLFPQSLSVSEPWAL [LALBA]” the figure was 10.8; with “YSHPPPLGVPNVPSAVPAAAPLHPQLHHPLSHSRSCTPAFQLCPRGF [PRKCG]”, 3.59; with “SAHQRAPSPRIAAPTQPGAPDPPGGLRGNRRREGKGPPSPSRPQGAATDWRAAEGGRARAPRGRTIRAPAPRPVPPQARA [TLX3]”, 3.75.
EIF2AK2: the median enrichment turned out to be 2.12.
YGFVVQD [EPM2AIP1]: the median enrichment turned out to be 0.381.
On to QLFTLFFYIYLYIYIKIGS [CBX3], for which the median enrichment amounted to 10.2.
The same measure for WGCSGNSHSAPIRAPCRGPSVVSD [TBC1D14]: 2.19; for “SEPQLTKSACPRTAPALELGARAAELVFGPQRRIQNQKLKSDVRWAPAPSAESRQGEAGWSQAPSHAAPKSWTHLWGAPHLHL [MYO9B]”: 7.17; for QQQQQQQ [Gln07]: 0.347.
As to QGLQKNWPWGTKAFFSGLLPRP [KANK4], the median enrichment was found to be 4.85.
With “SPHPAPPPPRPTRRPPDSSPGASSATPSLHPWGPSPPACTEQGLGVSWEA [ITGB4]”, the median enrichment was found to be 0.621.
With LLTLS [BBS5], the median enrichment stood at 10.2.
Turning to WWWWWWW [Trp07], the median enrichment came to 3.21.
For EMCNLISLFHHNHDRW [C9orf72], the median enrichment was determined as 9.03.
With “SDYCKPLPLLPCLCLFSPLTYSISQPPPTCLCDLRTVPSRHWDKGRISCSPPESAWCCPLFPLCAYD [PRPF3]” the figure was 2.87.
With KQGRWERDCLLPLLSSSCLEVEAV [GRM6] the figure was 6.27; with “QLGAHIKCFILHTWTLKPGCACILKQQSSHSFRQMFSVSEENMFSEEKTFRQMFSEEKKGKLGVGRC [PRAME]”, 9.08; with YNLIASTLKDKTSNSHLL [KIF9], 1.28.
As to LGFRSAT [KIF15], the median enrichment amounted to 1.28.
As for QDGWGWR [SCPEP1], the median enrichment stood at 0.778.
As for “RPPAPNSIIYYGAAPPGWPDPWALGLWILVPCLENSPPLAPHCSL [CYTH2]”, the median enrichment stood at 8.4.
As for LADP [AKAP4], the median enrichment was found to be 0.662.
With WFST [SEMA3D] the figure was 2.02; with LPVGVAGSSLQIWPARCLAGWTG [DOLPP1], 8.63.
As for “LTEPCWPAPTSLCSFLWFLLSFPTLRREIYFTALNSL [UBTD2]”, the median enrichment stood at 9.94.
As for “LDPQVPLSKAENVHIPHWHFPKDKNCPRHILSV [VSX1]”, the median enrichment was determined as 10.
With “YRGRPGTGGMSCRPQPGRTPHSLSRQRGQNRPAQPWSPLHSPRPLAPALPTSSAWSEGAARAQQRRGGRLWPPTSRPVPAGTA [ARHGAP39]”, the median enrichment was found to be 7.75.
Take YVYLFLQEI [PI15]: the median enrichment amounted to 4.25.
The same measure for MMMM [Met04]: 1.4; for SMFESHASLWKQYAM [STAT5A]: 0.883.
In the case of SPWGGGKG [C6orf47], the median enrichment came to 1.46.
Consider RAHELRL [TNFAIP8], for which the median enrichment was determined as 0.408.
The same measure for “RPQMAGTCSSDERVLRRTPPSSVLEAGRLGSRRGQRHLLSVLGCKQLCVSGDTSHHVPGN [AIRE]”: 7.82; for “KFSLLHYVHKGDHYHWGRNSCLVQCGKFLYIR [PDZRN3]”: 12.1.
In the case of SPLL [PIK3C2G], the median enrichment is 0.449.
With LLKTCSTTVLDTH [ATF2] the figure was 8.11; with QFLGLFEYSIPMGIYFLSCH [HHIP], 13.7.
On to “EPSPPLLCVGTGGPWPVPGHSGQGPRDISTRSWRAVRIHSACPALAGQRQGRTFGKTKTVGDRVCVYLCVSVSVCERELVSLK [TCF15]”, for which the median enrichment worked out at 6.39.
Turning to YRHLVVFWEQKNYFLLTRLFVLKTIFLNLS [EP300], the median enrichment was found to be 14.
For the substance “LVAPPHWTHGLAHASPLLPLPAIDNVAGTSASPLQPSNFPGTLLSAPEEGAVVSCCLWAPASSAVLGSVLLASVNNKATVCSG [MCM5]”, the median enrichment is 4.44.
With YTPNNLLPPLAPVAYISS [TMEM169] the figure was 11.3.
“SPSDYIFNTTPPTPSWVRVSPVCPRPIKSTCHC [GPS2]”: the median enrichment was found to be 5.9.
Take LIHGAEG [SLC16A1]: the median enrichment is 1.29.
The same measure for LRGPSPPPMAGG [Degron KLHDC2]: 5.1; for GRTRRFNRASVVSPVGLQKSGAFAICLK: 10.9.
Turning to GAAPQAGVEPDLGTKD [ZNF688], the median enrichment came to 0.378.
GGGGGGG [Gly07]: the median enrichment is 2.97.
As for LMLPGIK [CDV3], the median enrichment was 4.97.
For the substance LELLPCPSFPPCTT [FEZF2], the median enrichment amounted to 1.27.
On to LPR [ATXN2L], for which the median enrichment was determined as 0.876.
For the substance IIIIIII [Ile07], the median enrichment turned out to be 11.
With “LPMTLSWGPPARPGTFLPNPQTHDSLPHRLPQRPPTHFILSGHPSDLDPPVRAFKAPNSGTRSAPLPRPRAGNFSLPDPALLF [SCRT2]” the figure was 6.07.
On to SFLFYSH [DNAJB9], for which the median enrichment came out at 9.2.
With LKLQLNRGSRKLLSLRGGV [MIP], the median enrichment worked out at 14.1.
Take “RGRLNPPNINSHPSLHSCLPLFTFILRVQKFQVSFELYFVCQFHAYFSFIRES [CNTD1]”: the median enrichment was found to be 5.36.
Regarding QYNF [PPP1R42], the median enrichment was 0.505.
The same measure for YLLCVVGGGYYLYQPSVCHEPVGKSDIFII [IL1RAP]: 6.77; for RETPTTPQPHRTNNSLQV [DCSTAMP]: 0.265; for WLEWIYDVPLRRSISATILI [HMGCLL1]: 12.2.
On to RLPAAQKNFALSFPVLFHTQKDPRKPVFNM [NR3C2], for which the median enrichment was 3.55.
With RRRRRRRRRR [Arg10] the figure was 0.77.
On to RESAGIEQSSPAQVSSLP [ZNF622], for which the median enrichment was 0.239.
On to CASP8, for which the median enrichment is 22.5.
On to QFKELKIHMHEP [WDR41], for which the median enrichment stood at 1.3.
With LLSITKVYSKIIF [HNMT], the median enrichment came out at 7.95.
QIKLAVRNAKSC [RBMX]: the median enrichment was found to be 6.47.
With WKHFLPKVSGLRYTSIQQCIVIKILFQS [OR2L3], the median enrichment is 7.3.
In the case of “SGAENGSCRKIRLRRLPAFCHPSHSQTPDHLKLLTLWFQIFFNLLLLLSLSNLGTFKNREMSECG [STAT3]”, the median enrichment was found to be 6.44.
For YTDYIGSFELTSDKGGKFRQHYDLINFIF [MSH6], the median enrichment was found to be 21.1.
Take “QPSSCKAIAKQGGSLQSMPGDYVSQGGPMGMSMAQPSYTPPQMTPHPTQLRHGPPMHSYLPSHPHHPAMMMHGGPPTHPGMTM [MEIS2]”: the median enrichment amounted to 3.91.
